Publication PMC9433928
Like-named read-outs stand apart in the source and are kept apart here. Blank lines part the entries; values can stand above or below the substance they belong to.

Experiments:
[1] = molecular target: GFP10-tagged constitutively active CDC42 L61 mutant (UniProt P60953); test: split reporter (BiFC, NanoBiT); tripartite split-GFP: GFP10-GTPase mutant and GFP11-tagged partner co-transfected in MRC5 cells stably expressing GFP1-9; fixed 20 h after transfection; percent of reconstituted GFP (rGFP) positive cells by flow cytometry
[2] = molecular target: GFP10-tagged constitutively active RAC1 L61 mutant (UniProt P63000); test: as above
[3] = molecular target: GFP10-RHOA of the triSFP-RHOA reporter cells (UniProt P61586); test: split reporter (BiFC, NanoBiT); intracellular competition in triSFP-RHOA cells (MRC5_GFP1-9 with doxycycline-induced GFP10-RHOA and GFP11-RBD); mCherry fusions transfected; rGFP fluorescence by flow cytometry in quartiles of mCherry expression
[4] = molecular target: GFP10-tagged constitutively active RHOA L63 mutant (UniProt P61586); test: split reporter (BiFC, NanoBiT); tripartite split-GFP: GFP10-GTPase mutant and GFP11-tagged partner co-transfected in MRC5 cells stably expressing GFP1-9; fixed 20 h after transfection; percent of reconstituted GFP (rGFP) positive cells by flow cytometry
[5] = molecular target: GFP10-tagged constitutively active RHOA L63 mutant (UniProt P61586); test: as above; remark: listed apart in the source

GFP10-tagged constitutively active RHOA L63 mutant, sequence (P61586 other isoform, or with tags, fused parts or gaps mutant): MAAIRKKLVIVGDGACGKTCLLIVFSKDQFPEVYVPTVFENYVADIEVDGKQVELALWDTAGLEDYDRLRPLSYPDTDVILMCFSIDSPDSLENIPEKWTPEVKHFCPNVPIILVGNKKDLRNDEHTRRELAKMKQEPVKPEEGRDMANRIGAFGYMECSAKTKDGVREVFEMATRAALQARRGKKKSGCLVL
RHOTEKIN effector RHO Binding Domain (RBD) fused to a C-terminal GFP11 tag (domain or fragment), sequence (Q8C6B2 whole entry, the tested form may be a part): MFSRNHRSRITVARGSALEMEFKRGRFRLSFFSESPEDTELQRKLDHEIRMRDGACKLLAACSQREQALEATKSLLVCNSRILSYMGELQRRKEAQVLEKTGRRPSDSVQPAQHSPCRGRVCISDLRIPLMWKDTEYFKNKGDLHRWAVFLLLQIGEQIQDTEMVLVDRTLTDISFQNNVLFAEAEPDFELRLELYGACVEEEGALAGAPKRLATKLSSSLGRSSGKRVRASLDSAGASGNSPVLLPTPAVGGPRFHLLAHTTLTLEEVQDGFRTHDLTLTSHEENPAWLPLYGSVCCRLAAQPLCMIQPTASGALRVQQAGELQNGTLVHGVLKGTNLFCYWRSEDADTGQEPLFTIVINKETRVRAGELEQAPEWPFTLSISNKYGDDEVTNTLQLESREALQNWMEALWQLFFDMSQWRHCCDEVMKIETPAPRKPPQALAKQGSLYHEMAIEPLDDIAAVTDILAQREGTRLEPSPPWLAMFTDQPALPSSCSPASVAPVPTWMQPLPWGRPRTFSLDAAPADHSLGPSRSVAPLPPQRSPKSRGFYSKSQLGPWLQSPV
GFP11 tagged PAK-BD (domain or fragment), sequence (Q13153 2-545): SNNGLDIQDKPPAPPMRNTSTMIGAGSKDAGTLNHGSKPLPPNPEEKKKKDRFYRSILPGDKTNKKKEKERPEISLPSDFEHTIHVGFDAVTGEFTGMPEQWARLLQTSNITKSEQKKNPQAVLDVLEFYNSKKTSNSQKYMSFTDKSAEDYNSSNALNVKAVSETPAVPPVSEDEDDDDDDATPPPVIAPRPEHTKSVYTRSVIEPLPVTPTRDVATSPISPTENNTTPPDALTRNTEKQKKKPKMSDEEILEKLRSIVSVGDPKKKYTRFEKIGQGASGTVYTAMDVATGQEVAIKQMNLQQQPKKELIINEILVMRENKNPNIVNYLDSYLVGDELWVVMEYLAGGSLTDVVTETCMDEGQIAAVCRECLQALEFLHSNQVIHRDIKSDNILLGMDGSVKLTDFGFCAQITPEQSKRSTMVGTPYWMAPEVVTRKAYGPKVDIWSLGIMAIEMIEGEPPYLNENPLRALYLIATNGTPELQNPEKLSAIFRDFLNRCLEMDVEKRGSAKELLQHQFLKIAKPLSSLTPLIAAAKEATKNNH
GFP10-RHOA of the triSFP-RHOA reporter cells, sequence (P61586 whole entry, the tested form may be a part): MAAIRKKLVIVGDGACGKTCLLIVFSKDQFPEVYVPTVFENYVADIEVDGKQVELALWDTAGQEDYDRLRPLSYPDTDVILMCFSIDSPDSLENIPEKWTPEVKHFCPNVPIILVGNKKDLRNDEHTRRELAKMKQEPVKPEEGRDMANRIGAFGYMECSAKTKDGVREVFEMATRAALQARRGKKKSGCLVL
GFP10-tagged constitutively active CDC42 L61 mutant, sequence (P60953 other isoform, or with tags, fused parts or gaps mutant): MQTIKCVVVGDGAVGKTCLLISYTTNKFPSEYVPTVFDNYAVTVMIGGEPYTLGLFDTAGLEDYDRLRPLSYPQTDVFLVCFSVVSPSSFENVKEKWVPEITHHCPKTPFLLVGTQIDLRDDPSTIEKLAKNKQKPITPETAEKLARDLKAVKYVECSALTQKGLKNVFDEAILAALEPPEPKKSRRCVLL

- percent rGFP positive cells [1]: 11.8%
- percent rGFP positive cells [2]: 9.9%
Substance: GFP11 tagged PAK-BD (domain or fragment)

- percent decrease of rGFP fluorescence (competition with GFP11-RBD) [3]: 20%
Substance: RBD-mCherry (domain or fragment)

Substance: RHOTEKIN effector RHO Binding Domain (RBD) fused to a C-terminal GFP11 tag (domain or fragment)
- percent rGFP positive cells [4]: 28%
- percent rGFP positive cells [5]: 25%
